{"source": "patent US7838495B2", "about": "“Compositions and methods of use of EPB1, and ErbB3 binding protein” (University of Maryland, Baltimore, priority 2007, dated 2010)", "molecules": {"B1": {"name": "EBP1: ErbB3 binding protein (SEQ ID NO: 2), AR corepressor, here ectopically expressed in cancer cells by stable transfection of an expression plasmid (protein, listed as Homo sapiens)", "chain": "MSGEDEQQEQTIAEDLVVTKYKMGGDIANRVLRSLVEASSSGVSVLSLCEKGDAMIMEETGKIFKKEKEMKKGIAFPTSISVNNCVCHFSPLKSDQDYILKEGDLVKIDLGVHVDGFIANVAHTFVVDVAQGTQVTGRKADVIKAAHLCAEAALRLVKPGNQNTQVTEAWNKVAHSFNCTPIEGMLSHQLKQHVIDGEKTIIQNPTDQQKKDHEKAEFEVHEVYAVDVLVSSGEGKAKDAGQRTTIYKRDPSKQYGLKMKTSRAFFSEVERRFDAMPFTLRAFEDEKKARMGVVECAKHELLQPFNVLYEKEGEFVAQFKFTVLLMPNGPMRITSGPFEPDLYKSEMEVQDAELKALLQSSASRKTQKKKKKKASKTAENATSGETLEENEAGD", "modifications": "FLAG tag"}}, "key": {"[1]": {"system": "LNCaP cells", "assay": "Cell growth assays of LNCaP EPB1 transfectants (complete media, soft agar)", "type": "cell-based, human", "method": "Cell Growth Assays: To measure growth in complete media, cells (2×10^4) were seeded in triplicate in individual wells of 12-well tissue culture plates in RPMI-1640 with 10% FBS and cultured for the indicated number of days. Cells were trypsinized, stained with Trypan Blue (0.4%), and counted in a hemacytometer. For soft agar growth assays, increasing concentrations of cells (as indicated) were plated in 35 mm Petri dishes in complete media and 0.3% Difco Bacto Agar over an 0.5% agar layer. Colonies were counted after 10 days of incubation. For studies assessing the effect of dihydrotestosterone (DHT) on cell growth, cells (2×10^4) were plated in 12-well plates in complete media. After a 24-hour attachment period, the medium was replaced with steroid-free medium [phenol red-free RPMI 1640 and 5% charcoal-stripped FBS (Sigma)] for 48 hours. The final concentration of testosterone in the steroid-reduced media was less than 5 pM. After 48 hours of steroid depletion, cells were re-fed with fresh steroid-reduced medium with or without the indicated concentrations of DHT and/or bicalutamide (10 μM), and total cell numbers were assessed 7 days later."}, "[2]": {"system": "C81 cells", "assay": "C81 xenografts in female athymic nude mice", "type": "in vivo", "method": "FIG. 8A-C. Manipulation of EBP1 expression affects growth of prostate cancer cells in vivo. A. Ectopic expression of EBP1 reduces the growth of androgen independent cells in athymic female mice C81 vector or EBP1 transfected cells were injected subcutaneously into female athymic mice. Tumor development with time is shown (n=10 animals, 20 sites per group). B. Tumor volumes and growth rate. Tumor volumes were calculated as described in “Materials and Methods”. Each point represents the mean±SE (10 mice per group injected at 20 sites). C. Elimination of EBP1 expression enhances growth of androgen dependent LNCaP cells in vivo. A16 lentivirus control or C13 EBP1 shRNA transduced LNCaP cells were injected subcutaneously into female athymic mice. Tumor volumes were calculated as described in “Materials and Methods”. Each point represents the mean±SE (10 mice per group injected at 20 sites). * indicates p 0.04.\nWestern Blot Analysis. Western blot analysis was performed as previously described (19). The Ebp1 antibody was from Upstate (Lake Placid, N.Y.), the polyclonal antibody to actin from Sigma, the AKT and phospho AKT antibodies from Cell Signaling (Beverly, Mass.) and the AGR2 antibody was previously described (20) Cell Growth Assays Cell growth measurement in complete media was performed as described using a hemocytometer (21). For soft agar growth assays, increasing concentrations of cells (as indicated) were plated in 35 mm Petri dishes in 0.3% agar in complete media and colonies were counted after 10 days of incubation (21). For studies assessing the effect of DHT, HRG or chemotherapeutic agents on cell growth, cells (5×10^3) were plated in 96 well plates in complete media. After a 24-hour attachment period, the medium was replaced with steroid free medium [phenol red free RPMI 1640 and 5% charcoal stripped fetal bovine serum (Sigma)]. After 48 hours of steroid depletion, cells were refed with fresh steroid reduced medium with or without the indicated concentrations of DHT, bicalutamide (Casodex) (10 μM), HRG or the chemotherapeutic drugs at the concentrations indicated. Relative cell growth was determined using a Promega Proliferation Reagent (Promega, Madison Wis.) as per manufacturer's instructions with absorbance being read at […] using a Dynex plate reader. Luciferase Reporter Assays Cells (5×10^4) were plated in 12 well plates in complete media. When cells reached 50-60% confluence, they were transfected using the FuGENE®-6 Reagent (Roche, Indianapolis, Ind.) according to the manufacturer's instructions. Cells were transfected with 0.5 μg of an MMTV-luciferase reporter plasmid and 5 ng of a TK Renilla plasmid (Promega, Madison, Wis.) as an internal control. Complete medium was replaced 24 h after transfection with phenol red free RPMI 1640 with CSS with or without R1881 (10^−8M). Luciferase activity was determined using the Promega Dual luciferase assay kit as described by the manufacturer. In Vivo Studies in Athymic Mice Female nude athymic NCr-nu/nu mice, 4-6 weeks of age, were purchased from the National Cancer Institute (Frederick, Md.). Animals were housed in a pathogen free environment under controlled conditions of light and humidity and received food and water ad libitum. […] Tumors were measured with calipers. Tumor volumes were calculated by the formula width^2×length/2 […]. Mean tumor volume±S.D. were calculated and plotted against time. […] Statistical Analysis Results of growth assays were analyzed using a two-sided Students t-test. […]"}}}
{"molecule": "B1", "values": [{"measurement": "growth rate in complete media", "setting": "[1]; LNCaP EPB1 transfectants vs vector control, p<0.05", "result": "significantly decreased"}, {"measurement": "doubling time", "setting": "[1]; LNCaP EPB1 transfectants, complete media (vector control 48 hours)", "result": 72, "unit": "h"}, {"measurement": "decrease of colony growth in soft agar", "setting": "[1]; LNCaP, highest cell concentration tested, ten days", "result": "approximately 90%"}, {"measurement": "sites that developed tumors at the end of both studies", "setting": "[2]; C81 EBP1 transfectants (vector 25/26), p=0.00001", "result": "10/26"}, {"measurement": "inoculation sites with tumors on Day 28 post transplantation", "setting": "[2]; C81 EBP1 transfectants (vector controls 24/26)", "result": "1/26"}, {"measurement": "day on which the first tumor was observed", "setting": "[2]; C81 EBP1 transfectants s.c. in female nude mice (vector day 8)", "result": 20, "unit": "days"}, {"measurement": "average tumor volume at the end of the first study", "setting": "[2]; C81 EBP1 transfectants, 6 sites per group, Mean+S.E. (vector 998±206), p=0.01", "result": "104±70", "unit": "mm^3"}, {"measurement": "average tumor volume, second experiment", "setting": "[2]; C81 EBP1 transfectants, 20 sites per group (vector 561±47), p=0.0001, in mm³ (unit assumed)", "result": "206±54"}]}
